Measured values as given in patent publication US20190071489A1.
Values joined by “and” are separate entries in the source; they are usually repeats but may differ in a detail not shown here. Equal entries are not always repeated.

Assays:
[1] = molecular target: EBOV GP (Ebola virus , Mayinga) (UniProt Q05320); assay: cell-based or functional assay
[2] = molecular target: EBOV GP (Ebola virus , Mayinga) (UniProt Q05320)
[3] = molecular target: EBOV GP (Ebola virus , Mayinga) (UniProt Q05320); remark: listed apart in the source

Chain of UniProt Q05320 (Q05320 33-501, chain 1 of 2): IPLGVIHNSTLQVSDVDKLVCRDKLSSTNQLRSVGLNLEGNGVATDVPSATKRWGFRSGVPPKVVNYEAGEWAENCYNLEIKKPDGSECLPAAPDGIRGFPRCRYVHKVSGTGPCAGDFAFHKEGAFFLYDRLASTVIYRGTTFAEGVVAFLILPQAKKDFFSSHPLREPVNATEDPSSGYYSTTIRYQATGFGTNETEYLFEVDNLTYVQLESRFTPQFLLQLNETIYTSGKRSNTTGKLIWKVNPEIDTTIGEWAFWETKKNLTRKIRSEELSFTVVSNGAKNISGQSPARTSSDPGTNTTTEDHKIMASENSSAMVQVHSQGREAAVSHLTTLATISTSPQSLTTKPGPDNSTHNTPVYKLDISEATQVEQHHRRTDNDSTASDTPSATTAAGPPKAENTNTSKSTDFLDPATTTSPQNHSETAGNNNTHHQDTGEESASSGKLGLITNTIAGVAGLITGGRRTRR
Chain of UniProt Q05320 (Q05320 502-650, chain 2 of 2): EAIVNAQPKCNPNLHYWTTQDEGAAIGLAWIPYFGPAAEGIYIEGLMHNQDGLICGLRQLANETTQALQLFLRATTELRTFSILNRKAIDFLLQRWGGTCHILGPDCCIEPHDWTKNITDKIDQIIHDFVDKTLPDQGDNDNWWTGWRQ

Molecule	neutralization at 10 µg/mL [1]	maximum inhibition of input virus [1]	EC50 [2]	maximal binding, higher than the other antibodies [2]	Abs 450 (1/27) [3]	Abs 450 (Und.) [3]
13C6 (antibody)	< 20%	–	–	–	–	–
KZ52 (antibody)	–	80% and 90%	–	–	–	–
EVB100 (antibody, V domains shown) VH: QVQLQESGPGLVKPSDTLSLTCTVSGGSLSSFYWSWIRQPPGKGLEWIGYIYYSGSPNYSPSLESRVTMSVDTTRNQISLKLDSVTAADTAVYYCVRASRSYYWGSYRPTAFDSWGQGTLVTVSS VL: SYELTQPLSVSVSPGQTAIFTCSGDNLGDKYVCWFQQRPGQSPMLLIYQDNKRPSGIPERFSGSNSGNTATLTISGTQSTDEADYYCQTWDSTVVFGGGTKLTVL	–	100%	0.26 µg/mL	–	–	–
EVB114 (antibody, V domains shown) VH: EVQLVESGGGLIQPGGSLRLSCAASGFALRMYDMHWVRQTIDKRLEWVSAVGPSGDTYYADSVKGRFAVSRENAKNSLSLQMNSLTAGDTAIYYCVRSDRGVAGLFDSWGQGILVTVSS VL: DIQMTQSPSSLSASVGDRITITCRASQAFDNYVAWYQQRPGKVPKLLISAASALHAGVPSRFSGSGSGTHFTLTISSLQPEDVATYYCQNYNSAPLTFGGGTKVEIK	–	100%	0.07 µg/mL	100%	–	–
EVB167 (antibody, V domains shown) VH: AVQLVQSGAEVKKPGTTVKISCKVSGYTFIQEYIHWVQQAPGKGLVWMGLGDPENNETLYSEDFQGRVTMTADTSSDTAYLELRSLTFADTAVYFCTSRKSWWGQGTLVTVAS VL: ELVLTQSPGTLSLSPGESATLSCRASQSLSSDSVSWFQQKPGQAPRLVIHGTSKRATGIPDRFSGGGSGTDFTLTIARLEPEDFAVYYCQRSGYGMSVTWTFGQGTTVEIK	–	–	–	–	2.97 Abs 450	3.37 Abs 450
EVB165 (antibody, V domains shown) VH: DVQLVESGGGVVQPGGSLKLACVVSGFRFSDYWMSWVRQAPGKGLEWVANIKQDGSGKYYVDSVKGRFTVSRDNAKNSLYLHMTSLGAEDTAVYFCARAAPTGSYTNILVDNVHFDYWGQGILVAVSS VL: GIQLTQSPGSLSASVGDSVTITCRPNQNIATYINWYQQTPGKAPKLLIYAASILQSGVPSRFSGAGSGTHFTLIISTLQPEDSATYYCQQSYSTPWTFGQGTKVEIK	–	100%	> 1 µg/mL	–	1.72 Abs 450	3.17 Abs 450
